For series [1], the system named is HLA class I on IM-9 cells. As to the kind of experiment: Cell surface expression analysis of HLA class I by flow cytometry. The settings on record: IM-9, B-lymphoblastic cells; FITC-labeled mAb. The class given is binding, human. How it is done: Reactivity of 2D7 mAb in tumor cell lines and myeloma cells derived from multiple myeloma patients were assessed by flow cytometry.
The tumor cell lines used were prepared as follows. The myeloma cell line RPMI 8226, B lymphoblastic cell lines (IM-9, Raji, H S-Sultan, and Daudi), the T lymphoblastic cell line CEM, the chronic myeloid leukemia cell line K562, the lung adenocarcinoma cell line A549, the colon adenocarcinoma cell line COLO 201, and the gastric adenocarcinoma cell line MKN-1 were obtained from the Health Science Resources Bank (Osaka, Japan). The myeloma cell line U266-B1, the B lymphoblastic cell line ARH-77, the T-lymphoblastic cell line Jurkat the breast cancer cell line MCF-7, the hepatocellular carcinoma HepG2, the clear cell renal cell carcinoma Caki-2, and the malignant melanoma MeWo were obtained from the American Type Culture Collection (Manassas, Va.). The EBV-transformed B-cell line YN was a gift from Dr. Yasuhiko Nishioka (The University of Tokushima). These cell lines were cultured in an RPM-1640 medium (Sigma-Aldrich, St. Louis, Mo.) supplemented with 10% fetal calf serum (Gibco BRL, Grand Island, N.Y.) and penicillin (100 U/mL) under a humidified atmosphere of 5% CO2 at 37° C.
(§1) Cell surface expression analysis of HLA class I by flow cytometry was performed as follows using FITC-labeled 2D7 mAb or FITC-labeled anti-HLA-ABC common region mAb (Chemicon, San Diego, Calif.). The cells (5×10^5 cells) were washed twice with PBS, and then incubated on ice for 40 minutes with FITC-labeled 2D7 mAb or FITC-labeled anti-HLA-ABC common region mAb. MM patient-derived BMMCs were incubated on ice for 15 minutes with 2% γ globulin diluted in PBS, and stained with FITC-labeled 2D7 mAb and PE-labeled anti-CD38 mAb (BD Bioscience, San Jose, Calif.) for myeloma cell gating. Next, the cells were washed twice with PBS, and analyzed using an EPICS XL flow cytometer (Beckman Coulter, Japan). In several experiments, the cells were stimulated for 48 hours with IFNα or IFNγ prior to HLA class I expression analysis. HLA class I expression levels were evaluated as GeoMFI using the CellQuest software (BID Biosciences).
Background: Flow cytometry measures light scatter and fluorescence of single cells or particles in a stream.

Series [2] has as its system IM-9 cells. As to the kind of experiment: Cytotoxicity assay (WST-8 cell viability). The class given is cell-based, human. The settings on record: IM-9, 24 hours after cross-linking with the secondary antibody. The method, then:
(§2) In other experiments, cells were cultured with 2D7-DB in the absence of the goat anti-mouse IgG antibody. Cell viabilities were determined by WST-8 assays or Trypan Blue exclusion assays. […] (B) The morphological observations of myeloma cells after 2D7-DB treatment are shown. Purified MM cells derived from patient No. 18 were cultured for 24 hours in the presence (1 μg/mL) or absence of 2D7-DB. Next, cells were fixed on glass slides and stained with light Giemsa (original magnification,×1000). (C) A graph indicating the cytotoxic activity of 2D7-DB on the patients' MM cells is shown. CD138-positive MM cells were purified from six patients, and the cells were cultured for 24 hours with 2D7-DB (0.1 or 1μg/mL). Cell viabilities were determined by Trypan Blue exclusion assays.
Cytotoxicity assays were performed as follows. […] Cell viabilities were measured by WST-8 assays (Kishida Chemical, Osaka, Japan) for the cell lines, and by Trypan Blue dye exclusion assays for patient-derived primary MM cells. Apoptosis induction was assessed by flow cytometric analysis with Annexin V and PI staining (MEBCYTO apoptosis kit MBL, Nagoya, Japan).
Next, cytotoxic effects of single chain Fv-type 2D7 mAb (2D7-DB) on MM cell lines and patient-derived MM cells were assessed. […]
A general note: Tetrazolium dyes change colour on reduction, which living cells bring about.

Series [3] deals with HLA-A on lymphocytes. As to the kind of experiment: HLA-A expression in BMMCs of MM patients (flow cytometry, FITC-labeled 2D7 mAb). As to conditions: BM samples of 22 MM patients, mean±SD. The class given is binding, human. The method, then: (§3) After cell gating (R1: CD38-positive MM cells; R2: myeloid cells; and R3: lymphocytes), each cell population was evaluated for HLA-A expression. (B) BMMCs derived from 22 MM patients were analyzed for HLA-A expression.
(§4) Patients' MM cells were prepared as follows. First clinical disease stage classification and diagnosis of MM patients were performed according to the Durie and Salmon classification (Durie, B. CT, and S. E. Salmon. 1975. “A clinical staging system for multiple myeloma. Correlation of measured myeloma cell mass with presenting clinical features, response to treatment, and survival,” Cancer, 36:842-854). Bone marrow samples were collected from patients after obtaining informed consent upon approval by the ethics committee of The University of Tokushima. The bone marrow mononuclear cells (BMMCs) were separated by Ficoll-Hypaque (density of 1.077) centrifugation. Patient-derived MM cells were further purified from BMMCs using CD138 microbeads (Miltenyi Biotec, Auburn, Calif.).
as §1, with “In several experiments, the cells were stimulated for 48 hours with IFNα or IFNγ prior to HLA class I expression analysis.” left out
(§5) Next, HLA-A expression in BMMCs of MM patients was examined. […] After gating the cells according to their side-scattered light profile and CD38 expression, each of the cell populations comprising myeloma cells, myeloid cells, and lymphocytes was analyzed for HLA-A expression. […]

In series [4] the test system is HLA-A on myeloid cells. The series is described as above. The settings on record: BM samples of 22 MM patients, mean±SD. The class given is binding, human. The method, then: as §3, §4
as §1, with “In several experiments, the cells were stimulated for 48 hours with IFNα or IFNγ prior to HLA class I expression analysis.” left out
as §5

Series [5] relates to HLA-A on myeloma cells. The series is described as above. It is filed as binding, human. As to conditions: BM samples of 22 MM patients, mean±SD. How it is done: as §3, §4
as §1, with “In several experiments, the cells were stimulated for 48 hours with IFNα or IFNγ prior to HLA class I expression analysis.” left out
as §5

For series [6], the system named is patient-derived MM cells. As to the kind of experiment: Cytotoxicity assay (Trypan Blue dye exclusion), patient-derived primary MM cells. It is filed as cell-based, human. As to conditions: newly isolated MM cells, in the presence of a secondary antibody. The method, then: as §2, with “In other experiments, cells were cultured with 2D7-DB in the absence of the goat anti-mouse IgG antibody.” left out
Patients' MM cells were prepared as follows. First clinical disease stage classification and diagnosis of MM patients were performed according to the Durie and Salmon classification (Durie, B. CT, and S. E. Salmon. 1975. “A clinical staging system for multiple myeloma. Correlation of measured myeloma cell mass with presenting clinical features, response to treatment, and survival,” Cancer, 36:842-854). […]
Cytotoxicity assays were performed as follows. […] Cell viabilities were measured by WST-8 assays (Kishida Chemical, Osaka, Japan) for the cell lines, and by Trypan Blue dye exclusion assays for patient-derived primary MM cells. […]

B1: 2D7: monoclonal antibody obtained by immunizing human myeloma cells; recognizes HLA class I (HLA-A) (antibody, V domains shown)
VH: QVQLQQSGPELVKPGASVKMSCKASGYTFTDYFIHWVKQRPGQGLEWIGWIFPGDDTTDYNEKFRGKTTLTADKSSSTAYILLSSLTSEDSAMYFCVRSDDFDYWGQGTTLTVSS
VL: QIVLTQSPAIMSASPGEKVTITCSASSSVSYMHWFQQKPGTFPKLWIYSTSNLASGVPTRFSGSGSGTSYSLTISRMEAEDAATYYCQQRTSYPPTFGSGTKLEIK
Consider B1, for which, in series [1], the “Expression (geometric mean fluorescence intensity)” value is given as 662. Moreover, in series [2], the “inhibition of cell viability” value was “more efficiently than W6/32, B9.12.1, and JOAN-1”. Further, the “HLA expression level, geometric mean fluorescence intensity (GeoMFI)” value in series [3] is recorded as 91±44; in series [4] it was 201±209; in series [5], 1309±1130. In series [6], the cell viability entry is on record as “inhibited”.

The values above are taken from patent US20090022687A1, “Novel Pharmaceuticals That Use Anti-HLA Antibodies” (Chugai Seiyaku Kabushiki Kaisha, priority 2005, published 2009).
